Measurements published in publication PMC7598476.

Columns and labels:
[1] = target: biotinylated monomeric hMPV B2 F protein (human metapneumovirus (subgroup B2)); test: BLI
[2] = target: trypsinized trimeric hMPV B2 F (human metapneumovirus (subgroup B2)); test: SEC

101F Fab
Kd [1]: 0.43 µM

trypsinized trimeric hMPV B2 F (natural protein)
stoichiometry N [2]: 3
